The chains are these.
B1: VH:VL chains; a variant is named by its letters at X, in order (parent)
chain 1: QVQLVQSGAEVKKPGASVKVSCKASGYTFTDYXMHWVRQAPGQGLEWMGXVNPNXXXTTYNQKFEGRVTMTTDTSTSTAYMELRSLRSDDTAVYYCARXNXLDXWGQGTTVTVSS
chain 2: DIQMTQSPSSLSASVGDRVTITCSVSSSVSSIYLHWYQQKPGKAPKLLIYSTSNLASGVPSRFSGSGSGTDFTLTISSLQPEDFATYYCQVYSGYPLTFGGGTKVEIK

The variants in this series derive from B1. The experiment in a line: yeast display scFab, FACS + sequencing. Put shortly: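 The non-specific binding call was based on sorted and sequenced yeast displaying a heavy-chain CDR mutant scFab library. Labelling used anti-Myc with biotinylated ovalbumin (260 μg/mL in PBSB, 3 h, room temperature) or soluble membrane proteins (130 μg/mL, 20 min on ice), and FACS collected the top 25% and bottom 10% of binders in two replicates. Positive meant present in ≥3 of 4 pooled positive samples and in no negatives, and negative meant the converse.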
Turning to YRRRGVAD, the non-specific binding call is “binds”.
In the case of VERASAVV it was “no binding”; in that of YKGRGSVY, “binds”.
In the case of FRGGDYGS it was “binds”; in that of SGEGGAGA, “no binding”; in that of DKTGNDVV, “no binding”.
Consider YTKTSSVD, for which the non-specific binding call is reported as “binds”.
For YTEGDDGD the value was “no binding”.
In the case of DKEGGDLA it was “no binding”.
In the case of VKAGASAD it was “binds”.
Consider VRRKDFLA, for which the non-specific binding call is listed as “binds”.
For YRRGDAWD the value was “binds”; for YRGRGFGV, “binds”.
Regarding YRGRGFGY, the non-specific binding call is listed as “binds”.
For YAGEGDGA the value was “no binding”; for SKRRSVGA, “binds”.
For SEEEGAGD the value was “no binding”; for DEGGTSVD, “no binding”; for YRARSSWS, “binds”.
For VEERDAGD the value was “no binding”; for VTGGGASF, “no binding”.
With VRKGSSGD, the non-specific binding call was “binds”.
For YKRGDAGY the value was “no binding”.
In the case of SEARSDVV it was “no binding”; in that of VTTKSDSA, “no binding”; in that of DEGGDAGD, “no binding”.
For YRGRSAWV the value was “binds”; for VKARGSLA, “binds”; for SRRRGAWY, “binds”.
As to YTRGASGA, the non-specific binding call is “no binding”.
For the variant VRGGDAVA, the non-specific binding call was “no binding”.
For VEKEGDGS the value was “no binding”; for YRTAGAGD, “binds”.
Regarding YKRGSSSY, the non-specific binding call is listed as “binds”.
For FRTGGSAD the value was “binds”; for YRARSSAD, “binds”; for SKKRGAWY, “binds”.
Consider VKEKGSLF, for which the non-specific binding call is reported as “binds”.
As to FRGGGSSA, the non-specific binding call is reported as “binds”.
In the case of VKGRGFWY it was “binds”; in that of DGGKGAVD, “binds”; in that of FRGRGYGA, “binds”.
In the case of YRRGGAWA it was “binds”; in that of DAGGGAGD, “no binding”; in that of YRAGDAAD, “no binding”.
In the case of YKKGAAGF it was “binds”; in that of DARGGSLS, “no binding”; in that of DREEGDGV, “no binding”.
With YRRKGDAD, the non-specific binding call is “binds”.
In the case of SKTRAFVA it was “binds”; in that of YRRRGFVD, “binds”.
For YRRRGFVA, the non-specific binding call is on record as “binds”.
In the case of YRRGGAAY it was “binds”; in that of YRRGGAAV, “binds”; in that of YRRGGAAD, “binds”.
Regarding FKKGSSLD, the non-specific binding call is given as “binds”.
With YAARGAAV, the non-specific binding call is “binds”.
For YKKTGDLY the value was “no binding”; for YTTGGDWA, “no binding”; for FRKGGSLD, “binds”.
In the case of VETEGAGA it was “no binding”; in that of VRGGDDWA, “no binding”; in that of YKARGALS, “binds”.
For the variant YKAGGALA, the non-specific binding call is listed as “binds”.
As for DAGGAAGV, the non-specific binding call is recorded as “no binding”.
YMAEGSGA: the non-specific binding call is listed as “binds”.
In the case of YRRRGASD it was “binds”; in that of DARGGSAD, “no binding”; in that of VKGRGSGS, “binds”.
In the case of YRGKAFGV it was “binds”; in that of SEARSDWV, “no binding”.
In the case of VAARGAAV it was “no binding”; in that of YRKRGAVD, “binds”; in that of VRTEDSWS, “no binding”.
With FRGGGSGS, the non-specific binding call is recorded as “binds”.
In the case of FKGEGSLV it was “no binding”.
For the variant YKGRSAAA, the non-specific binding call is recorded as “binds”.
In the case of YRTRDSLD it was “no binding”; in that of VGGTGSGY, “no binding”; in that of AGTKADVV chain 1 G108S, “no binding”.
In the case of YRRRGAAS it was “binds”; in that of YRARGVGV, “binds”; in that of VKEKGYLV, “no binding”.
For YRGRGALS the value was “binds”.
Regarding YKARGSAA, the non-specific binding call is given as “binds”.
For DAARGDVV the value was “no binding”; for YRRGSAWA, “binds”; for VKGRADSA, “no binding”.
For FRTKGAAD the value was “binds”.
Regarding DGGKNDVV, the non-specific binding call is “no binding”.
For YGKRDASY the value was “binds”; for YRARGAGS, “binds”.
For YRGAGAGA the value was “binds”; for VKGRGSSF, “no binding”.
In the case of FRGRGSSA, the non-specific binding call was “binds”.
For VKRGSSGD the value was “binds”; for VRTKDFSY, “no binding”.
For FRGRASAD the value was “binds”.
For SGEGGAAV, the non-specific binding call was “no binding”.
Consider YATGDDVA, for which the non-specific binding call is “no binding”.
In the case of YKRGSAGF it was “binds”; in that of DAGGASGV, “no binding”.
For the variant DRAGDSWD, the non-specific binding call was “no binding”.
For VAEGDAAD the value was “no binding”; for YRRRGFAV, “binds”.
In the case of YRARSSSD, the non-specific binding call is listed as “binds”.
Turning to FREEGFSV, the non-specific binding call was “no binding”.
In the case of SREAADWV it was “no binding”; in that of AREEGFSV, “no binding”.
For VKGRGSWA the value was “binds”; for SREAADGV, “no binding”.
For FRGRGAAS, the non-specific binding call is on record as “binds”.
For YRRRGDWD the value was “binds”; for FARGGDAV, “no binding”.
In the case of VRAGGDLA it was “no binding”; in that of YRGRSSWS, “binds”.
Consider SRGANAWD, for which the non-specific binding call was “binds”.
In the case of ATTGGDGV it was “no binding”; in that of FGRGTSGD, “binds”.

The values above are taken from the emibetuzumab library of Makowski et al. (2022).
